Consider two substances from paper PMC3477590.

The target in assay [1] is CFP-RBX1-CUL1^CTD (human) (UniProt P62877). As to the kind of experiment: FRET or BRET.
In a further assay the target is CFP-RBX1-CUL1^CTD~NEDD8 (UniProt P62877). As to the kind of experiment: FRET or BRET.
The target in a further assay is CFP-RBX1^RING (human) (UniProt P62877). The assay is described as follows: FRET or BRET.
Assay [2] addresses cellular RBX1 (Fig. S7) (human) (UniProt P62877).

GLMN-YFP, sequence (Q92990 whole entry): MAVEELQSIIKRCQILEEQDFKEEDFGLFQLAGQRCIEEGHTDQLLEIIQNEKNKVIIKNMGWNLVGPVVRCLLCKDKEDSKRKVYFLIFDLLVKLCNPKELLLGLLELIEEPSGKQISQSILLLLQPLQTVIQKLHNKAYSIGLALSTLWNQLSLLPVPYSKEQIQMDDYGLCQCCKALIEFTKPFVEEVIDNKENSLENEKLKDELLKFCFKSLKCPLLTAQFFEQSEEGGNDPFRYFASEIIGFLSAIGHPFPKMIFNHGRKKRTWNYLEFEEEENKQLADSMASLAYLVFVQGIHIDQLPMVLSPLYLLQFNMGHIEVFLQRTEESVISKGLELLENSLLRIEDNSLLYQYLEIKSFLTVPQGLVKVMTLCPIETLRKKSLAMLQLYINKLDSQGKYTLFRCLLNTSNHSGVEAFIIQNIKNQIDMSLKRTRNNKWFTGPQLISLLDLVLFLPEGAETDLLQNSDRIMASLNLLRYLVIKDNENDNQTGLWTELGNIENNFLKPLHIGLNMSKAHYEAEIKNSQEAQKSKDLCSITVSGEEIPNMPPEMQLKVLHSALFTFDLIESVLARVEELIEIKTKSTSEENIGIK
GLMN in cells (Fig. S7), sequence (Q92990 whole entry): as above
CFP-RBX1^RING (human), sequence (P62877 whole entry): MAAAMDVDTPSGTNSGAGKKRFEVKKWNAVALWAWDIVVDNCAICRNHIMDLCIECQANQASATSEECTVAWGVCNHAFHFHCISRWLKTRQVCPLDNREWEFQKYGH
CFP-RBX1-CUL1^CTD~NEDD8, sequence (P62877 whole entry, chain 1 of 3): as the sequence (P62877 whole entry) above
CFP-RBX1-CUL1^CTD~NEDD8, sequence (Q13616 411-776, chain 2 of 3, further chain): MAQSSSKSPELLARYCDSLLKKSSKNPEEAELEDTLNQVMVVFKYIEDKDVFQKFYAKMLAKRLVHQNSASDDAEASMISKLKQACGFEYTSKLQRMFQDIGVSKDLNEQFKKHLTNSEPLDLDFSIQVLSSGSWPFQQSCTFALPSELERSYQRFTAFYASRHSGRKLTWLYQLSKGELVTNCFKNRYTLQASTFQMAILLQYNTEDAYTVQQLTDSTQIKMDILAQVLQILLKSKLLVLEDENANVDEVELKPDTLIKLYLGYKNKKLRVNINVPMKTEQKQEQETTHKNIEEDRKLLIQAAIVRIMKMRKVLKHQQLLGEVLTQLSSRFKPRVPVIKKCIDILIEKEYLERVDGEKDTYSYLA
CFP-RBX1-CUL1^CTD~NEDD8, sequence (Q15843 1-76, chain 3 of 3, further chain): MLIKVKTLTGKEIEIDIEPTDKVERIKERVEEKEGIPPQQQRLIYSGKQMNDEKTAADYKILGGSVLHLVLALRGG
cellular RBX1 (Fig. S7) (human), sequence (P62877 whole entry): as the sequence (P62877 whole entry) above
CFP-RBX1-CUL1^CTD (human), sequence (P62877 whole entry, chain 1 of 2): as the sequence (P62877 whole entry) above
CFP-RBX1-CUL1^CTD (human), sequence (Q13616 411-776, chain 2 of 2, further chain): as the sequence (Q13616 411-776, chain 2 of 3, further chain) above

Consider “GLMN-YFP (from UniProt Q92990 1-594) (natural protein)”, for which the dissociation constant Kd is 36 nM in assay [1], 28 nM with CFP-RBX1-CUL1^CTD~NEDD8 and 45 nM with CFP-RBX1^RING (human).

Consider “GLMN in cells (Fig. S7) (from UniProt Q92990 1-594) (natural protein)”, for which, in assay [2], the percent of cellular RBX1 bound by GLMN is 7 percent.
